Non-standard residues stand in square brackets, D forms with d. hArg = N=C(N)NCCCC[C@H](N)C(=O)O; 4Pal = N[C@@H](Cc1ccncc1)C(=O)O; Cha = N[C@@H](CC1CCCCC1)C(=O)O; hSer = N[C@@H](CCO)C(=O)O; Iva = CC[C@](C)(N)C(=O)O; Nle = CCCC[C@H](N)C(=O)O; Orn = NCCC[C@H](N)C(=O)O; Nva = CCC[C@H](N)C(=O)O; Nar = not defined here; Aib = CC(C)(N)C(=O)O
Columns and labels:
human Y2 receptor [1] = target: T1, human Y2 receptor (Homo sapiens, UniProt P49146); assay: Receptor Binding Assay (RBA) for Human Y2, [125I]-PYY displacement on hY2R/CHO membrane fraction; details: IC50 of test compound/IC50 of PYY(3-36) (PYY(3-36) taken as 1)
T1 construct: expressed in transfected cells; membrane fraction
T1 sequence (P49146 1-381): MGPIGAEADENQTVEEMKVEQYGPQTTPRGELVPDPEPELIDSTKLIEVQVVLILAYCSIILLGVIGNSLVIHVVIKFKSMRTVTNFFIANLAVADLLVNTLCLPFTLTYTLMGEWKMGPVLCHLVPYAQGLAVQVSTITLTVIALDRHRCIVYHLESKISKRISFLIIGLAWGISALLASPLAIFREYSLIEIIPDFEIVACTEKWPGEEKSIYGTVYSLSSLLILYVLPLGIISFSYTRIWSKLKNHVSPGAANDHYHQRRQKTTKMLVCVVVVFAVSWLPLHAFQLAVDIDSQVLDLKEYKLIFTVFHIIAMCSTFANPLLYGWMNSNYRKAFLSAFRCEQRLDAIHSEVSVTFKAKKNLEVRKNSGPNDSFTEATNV
Outline: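 hY2R stably expressed in CHO/dhfr− cells; membrane fraction prepared from cells disrupted in 10 mM NaHCO3, 5 mM EDTA buffer with protease inhibitors. Binding read as displacement of [125I]-PYY.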

human Y2 receptor [2] = target: T1, human Y2 receptor; assay: Human Y2 Receptor G Protein Binding Assay (GBA), [35S]GTPγS; format: biochemical; details: EC50 of test compound/EC50 of PYY(3-36) (PYY3-36 taken as 1), hY2R/CHO membrane fraction
Outline: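 Agonism measured as [35S]GTPγS binding, read by GF/C filtration and scintillation counting after 120 min at room temperature, using human Y2 membranes at 1 μg protein/mL in pH 7.4 Tris/MgCl2/NaCl/GDP buffer. Compound serially diluted 100 μM–1 nM; EC50 normalized to PYY(3-36) (ratio = compound/PYY).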

Ac-[D-Pro24, Har25, Cha27,36, Aib28,31, Lys30]-PYY(23-36) (Ac-S[dP][hArg]H[Cha][Aib]NK[Aib]TRQR[Cha]-NH2; SMILES CC(=O)N[C@@H](CO)C(=O)N1CCC[C@@H]1C(=O)N[C@@H](CCCCNC(=N)N)C(=O)N[C@@H](Cc1c[nH]cn1)C(=O)N[C@@H](CC1CCCCC1)C(=O)NC(C)(C)C(=O)N[C@@H](CC(N)=O)C(=O)N[C@@H](CCCCN)C(=O)NC(C)(C)C(=O)N[C@H](C(=O)N[C@@H](CCCNC(=N)N)C(=O)N[C@@H](CCC(N)=O)C(=O)N[C@@H](CCCNC(=N)N)C(=O)N[C@@H](CC1CCCCC1)C(N)=O)[C@@H](C)O) [compound No. 291]
RBA IC50 Ratio (human Y2 receptor [1]): 1.2 | GBA EC50 Ratio (human Y2 receptor [2]): 2.7

Ac-[D-Pro24, Har25, Pya(4)26, Cha27,36, Aib28,31, Lys30]-PYY(23-36) [compound No. 289]
RBA IC50 Ratio (human Y2 receptor [1]): 0.82 | GBA EC50 Ratio (human Y2 receptor [2]): 1.4

Ac-[D-Pro24, Hse26, Cha27,36, Aib28,31]-PYY(23-36) (Ac-S[dP]R[hSer][Cha][Aib]NL[Aib]TRQR[Cha]-NH2; SMILES CC(=O)N[C@@H](CO)C(=O)N1CCC[C@@H]1C(=O)N[C@@H](CCCNC(=N)N)C(=O)N[C@@H](CCO)C(=O)N[C@@H](CC1CCCCC1)C(=O)NC(C)(C)C(=O)N[C@@H](CC(N)=O)C(=O)N[C@@H](CC(C)C)C(=O)NC(C)(C)C(=O)N[C@H](C(=O)N[C@@H](CCCNC(=N)N)C(=O)N[C@@H](CCC(N)=O)C(=O)N[C@@H](CCCNC(=N)N)C(=O)N[C@@H](CC1CCCCC1)C(N)=O)[C@@H](C)O) [compound No. 128]
RBA IC50 Ratio (human Y2 receptor [1]): 11 | GBA EC50 Ratio (human Y2 receptor [2]): 5.4

Ac-[D-Pro24, Iva25, Cha27,28,36, Aib31]-PYY(23-36) (Ac-S[dP][Iva]H[Cha][Cha]NL[Aib]TRQR[Cha]-NH2; SMILES CC[C@](C)(NC(=O)[C@H]1CCCN1C(=O)[C@H](CO)NC(C)=O)C(=O)N[C@@H](Cc1c[nH]cn1)C(=O)N[C@@H](CC1CCCCC1)C(=O)N[C@@H](CC1CCCCC1)C(=O)N[C@@H](CC(N)=O)C(=O)N[C@@H](CC(C)C)C(=O)NC(C)(C)C(=O)N[C@H](C(=O)N[C@@H](CCCNC(=N)N)C(=O)N[C@@H](CCC(N)=O)C(=O)N[C@@H](CCCNC(=N)N)C(=O)N[C@@H](CC1CCCCC1)C(N)=O)[C@@H](C)O) [compound No. 177]
RBA IC50 Ratio (human Y2 receptor [1]): 4.5 | GBA EC50 Ratio (human Y2 receptor [2]): 3.7

Ac-[D-Pro24, Iva25, Cha27,36, Aib28,31, Lys30]-PYY(23-36) (Ac-S[dP][Iva]H[Cha][Aib]NK[Aib]TRQR[Cha]-NH2; SMILES CC[C@](C)(NC(=O)[C@H]1CCCN1C(=O)[C@H](CO)NC(C)=O)C(=O)N[C@@H](Cc1c[nH]cn1)C(=O)N[C@@H](CC1CCCCC1)C(=O)NC(C)(C)C(=O)N[C@@H](CC(N)=O)C(=O)N[C@@H](CCCCN)C(=O)NC(C)(C)C(=O)N[C@H](C(=O)N[C@@H](CCCNC(=N)N)C(=O)N[C@@H](CCC(N)=O)C(=O)N[C@@H](CCCNC(=N)N)C(=O)N[C@@H](CC1CCCCC1)C(N)=O)[C@@H](C)O) [compound No. 239]
RBA IC50 Ratio (human Y2 receptor [1]): 8.8 | GBA EC50 Ratio (human Y2 receptor [2]): 5.2

Ac-[D-Pro24, Iva25, Pya(4)26, Cha27,36, Nva28, Aib31, Lys30]-PYY(23-36) (Ac-S[dP][Iva][4Pal][Cha][Nva]NK[Aib]TRQR[Cha]-NH2; SMILES CCC[C@H](NC(=O)[C@H](CC1CCCCC1)NC(=O)[C@H](Cc1ccncc1)NC(=O)[C@](C)(CC)NC(=O)[C@H]1CCCN1C(=O)[C@H](CO)NC(C)=O)C(=O)N[C@@H](CC(N)=O)C(=O)N[C@@H](CCCCN)C(=O)NC(C)(C)C(=O)N[C@H](C(=O)N[C@@H](CCCNC(=N)N)C(=O)N[C@@H](CCC(N)=O)C(=O)N[C@@H](CCCNC(=N)N)C(=O)N[C@@H](CC1CCCCC1)C(N)=O)[C@@H](C)O) [compound No. 352]
RBA IC50 Ratio (human Y2 receptor [1]): 1.6 | GBA EC50 Ratio (human Y2 receptor [2]): 1.3

Ac-[D-Pro24, Iva26, Cha27,28,36, Aib31]-PYY(23-36) (Ac-S[dP]R[Iva][Cha][Cha]NL[Aib]TRQR[Cha]-NH2; SMILES CC[C@](C)(NC(=O)[C@H](CCCNC(=N)N)NC(=O)[C@H]1CCCN1C(=O)[C@H](CO)NC(C)=O)C(=O)N[C@@H](CC1CCCCC1)C(=O)N[C@@H](CC1CCCCC1)C(=O)N[C@@H](CC(N)=O)C(=O)N[C@@H](CC(C)C)C(=O)NC(C)(C)C(=O)N[C@H](C(=O)N[C@@H](CCCNC(=N)N)C(=O)N[C@@H](CCC(N)=O)C(=O)N[C@@H](CCCNC(=N)N)C(=O)N[C@@H](CC1CCCCC1)C(N)=O)[C@@H](C)O) [compound No. 176]
RBA IC50 Ratio (human Y2 receptor [1]): 5.2 | GBA EC50 Ratio (human Y2 receptor [2]): 4.2

Ac-[D-Pro24, Lys(Ac)25, Pya(4)26, Cha27,36, Aib28,31, Lys30]-PYY(23-36) (Ac-S[dP]K(Ac)[4Pal][Cha][Aib]NK[Aib]TRQR[Cha]-NH2; SMILES CC(=O)NCCCC[C@H](NC(=O)[C@H]1CCCN1C(=O)[C@H](CO)NC(C)=O)C(=O)N[C@@H](Cc1ccncc1)C(=O)N[C@@H](CC1CCCCC1)C(=O)NC(C)(C)C(=O)N[C@@H](CC(N)=O)C(=O)N[C@@H](CCCCN)C(=O)NC(C)(C)C(=O)N[C@H](C(=O)N[C@@H](CCCNC(=N)N)C(=O)N[C@@H](CCC(N)=O)C(=O)N[C@@H](CCCNC(=N)N)C(=O)N[C@@H](CC1CCCCC1)C(N)=O)[C@@H](C)O) [compound No. 280]
RBA IC50 Ratio (human Y2 receptor [1]): 6.6 | GBA EC50 Ratio (human Y2 receptor [2]): 4.2

Ac-[D-Pro24, Nar25, Pya(4)26, Cha27,36, Aib28,31, Lys30]-PYY(23-36) (Ac-S[dP][Nar][4Pal][Cha][Aib]NK[Aib]TRQR[Cha]-NH2; reading uncertain) [compound No. 290]
RBA IC50 Ratio (human Y2 receptor [1]): 1.1 | GBA EC50 Ratio (human Y2 receptor [2]): 1.8

Ac-[D-Pro24, Nle25, Pya(4)26, Cha27,28,36, Aib31]-PYY(23-36) (Ac-S[dP][Nle][4Pal][Cha][Cha]NL[Aib]TRQR[Cha]-NH2; SMILES CCCC[C@H](NC(=O)[C@H]1CCCN1C(=O)[C@H](CO)NC(C)=O)C(=O)N[C@@H](Cc1ccncc1)C(=O)N[C@@H](CC1CCCCC1)C(=O)N[C@@H](CC1CCCCC1)C(=O)N[C@@H](CC(N)=O)C(=O)N[C@@H](CC(C)C)C(=O)NC(C)(C)C(=O)N[C@H](C(=O)N[C@@H](CCCNC(=N)N)C(=O)N[C@@H](CCC(N)=O)C(=O)N[C@@H](CCCNC(=N)N)C(=O)N[C@@H](CC1CCCCC1)C(N)=O)[C@@H](C)O) [compound No. 140]
RBA IC50 Ratio (human Y2 receptor [1]): 20 | GBA EC50 Ratio (human Y2 receptor [2]): 2.6

Ac-[D-Pro24, Orn26, Cha27,28,36, Aib31]-PYY(23-36) (Ac-S[dP]R[Orn][Cha][Cha]NL[Aib]TRQR[Cha]-NH2; SMILES CC(=O)N[C@@H](CO)C(=O)N1CCC[C@@H]1C(=O)N[C@@H](CCCNC(=N)N)C(=O)N[C@@H](CCCN)C(=O)N[C@@H](CC1CCCCC1)C(=O)N[C@@H](CC1CCCCC1)C(=O)N[C@@H](CC(N)=O)C(=O)N[C@@H](CC(C)C)C(=O)NC(C)(C)C(=O)N[C@H](C(=O)N[C@@H](CCCNC(=N)N)C(=O)N[C@@H](CCC(N)=O)C(=O)N[C@@H](CCCNC(=N)N)C(=O)N[C@@H](CC1CCCCC1)C(N)=O)[C@@H](C)O) [compound No. 150]
RBA IC50 Ratio (human Y2 receptor [1]): 4.2 | GBA EC50 Ratio (human Y2 receptor [2]): 2.2

— patent US9260500B2, “Peptide and use thereof” (Takeda Pharmaceutical Company Limited, priority 2009, dated 2016)
